Source: the DeepSol protein solubility set

Assay: soluble on expression in E. coli; label from the status in PepcDB or PDB records

Sequence | soluble on expression in E. coli
MMNYDRILIRYGEMTTKGKNRNIFVRRLKNNIARKLQAFERIQIEYMRDRMYILLNGEPHEPIIEKLKTVFGIHSFSLAMKCENDLDAIKETALAAVRQLPYKGKTFKVSARRVDKQFPDRSDELNYEVGAHILRHTDGLTVNVREPDIDVRIEVRQDGTYVTCRDIFGAGGLPVGTSGKAMLMLSGGIDSPVAGYLSMKRGLEIEAVHFFSPPFTSERAKQKVIDLVRKLTTYGGRIKLHIVPFTEVQQAIYQGVPNEYSLISTRRAMLRITDALRRRQRALAIVTGESLGQVASQTLESMYVINEVTNTPILRPLVSMDKLEIIELAKQIGTHDISILPYEDCCTIFTPRAPKTKPKKEKVFHYESQLDLAPLLEKAVNDTETLVIDEETGQGDEFAELF | not soluble
MMPLNRQSTTPLYIQLYQQMRDDYDATQANHQLWSIRKMAQNLGVSKTTVEQAYDQLLAEGYVYTVPGSGYFYRDRTHWPAAKQALETVPQPTKPRAFTYDFRYGVTQLLSPSWNAWKRAVRLALRQTEQQPTAVYPDAQGLPALRENLVRFLKTTRGVRCTADQIVITSGAKAGLSILLSILPRGTVGIENPGYRGLSELAASYGQTAVPIRVTEDGLDLTQVRARNPQIIYTTPGHQFPLGVVLPIEKRLALLQWAGTQHLIIEDDYDSEYRYSAHPLPALQSLATANQVAYLGTFSRGIDPTLRMGYLVLPPQLVATYHQRYQYRAEMVAGLLQQAMANYFEDGAYYRHLSRNRAANRQKYRVLCHQLAQTKQIRPIATGAGVHLVVQIPGIAQAKLLEALEQQQVRIYPLSSNWRDMPTTDYYLLGFAGLTLSELTTGVKRLVQVCEQLVR | not soluble
MMPTEYPATAEESVDVITDALLTASRLLVAISAHSIAQVDENITIPQFRTLVILSNHGPINLATLATLLGVQPSATGRMVDRLVGAELIDRLPHPTSRRELLAALTKRGRDVVRQVTEHRRTEIARIVEQMAPAERHGLVRALTAFTEAGGEPDARYEIE | soluble
MMRMKVKVVVNGKEYEVEVEEVMPGKFRVTLEGETYEVETSAGFVTSPKQVQVPTPAPTPAPAPTPTPAPAPSSKTVVSENVVSAPMPGKVLRVLVRVGDRVRVGQGLLVLEAMKMENEIPSPRDGVVKRILVKEGEAVDTGQPLIELG | soluble
MMRRTLENRNAQTKQLQTAVSNVEKHFGELCQIFAAYVRKTARLRDKADLLVNEINAYAATETPHLKLGLMNFADEFAKLQDYRQAEVERLEAKVVEPLKTYGTIVKMKRDDLKATLTARNREAKQLTQLERTRQRNPSDRHVISQAETELQRAAMDASRTSRHLEETINNFERQKMKDIKTIFSEFITIEMLFHGKALEVYTAAYQNIQNIDEDEDLEVFRNSLYAPDYSSRLDIVRANSKSPLQRSLSAKCVSGTGQEAGWAATCQTLI | soluble
MMSDRDYTLIIDKSGSMSTPDQAGGRSRWEIAQESTLALARKCEQFDPDGITVYLFSGKFKRYDDVTSAKVAQIFLENDPAGTTNLAGVLQDALNNYFQRKAAGKTKPNGETILVITDGEPDDRKAVFETIIHATRQMERDEELGISMIQVGSDAQATKFLKALDDQLQSVGAKFDICDTITLEDLEDMSLADVLMNAITDLEHHHHHH | soluble
MMSETGFIDVKIFPQRLLKPETAEKLLNRIYELEGIVRVLVHGPSIPDRVYYGPARGTEVNHSDRRKITVRGEEFELRVKVGEIIVGMLPETLEEKMETIEEILDEVLPCSYKVFIGAFTKKDITISDYLKYGLKFEEKIDPRVIGMVDPSSRMKDTVVNIKLEHHHHHH | soluble
MMSPRIGLTLQKIVETAAEIADANGVQEVTLASLAQTLGVRSPSLYNHVKGLQDVRKNLGIYGIKKLHNRLEEAAEDKRMDEAIHALGEAYVAFVRKHPGLYEATFLRDEEVRKAGDGIVKLCLQVLQQYGLEGENALHATRGFRSICHGFASIEQQGGFGLPLDLDISLHVLLETFIKGLRE | soluble
MMSVEHSANSQKKVIVGMSGGVDSSVSAYLLKQQGYQVEGLFMKNWEEDDNEEYCTAAEDLADAQAVCDKLGIPLHTINFAAEYWDNVFEYFLAEYKAGRTPNPDILCNKEIKFKAFLEFADEVLDADYIAMGHYVRRTFPQNGEKPQMLRGLDGNKDQSYFLYTLSHEQVARTLFPVGELEKPEVRRIAEEQGLITAKKKDSTGICFIGERKFTDFLSRYLPAQPGKIETPEGKVIGEHQGLMYHTLGQRKGLHIGGMKESSEQPWYVADKDLKRNVLIAVQGADHPLLKSHGLVAAQLHWVDRTPITEPVRCSVKTRYRQSDIACTIIPLSDDRIKVMFDEPQVAVTPGQSAVFYQGEICLGGGIIEERI | not soluble
MMVLRMKVEWYLDFVDLNYEPGRDELIVEYYFEPNGVSPEEAAGRIASESSIGTWTTLWKLPEMAKRSMAKVFYLEKHGEGYIAKIAYPLTLFEEGSLVQLFSAVAGNVFGMKALKNLRLLDFHPPYEYLRHFKGPQFGVQGIREFMGVKDRPLTATVPKPKMGWSVEEYAEIAYELWSGGIDLLKDDENFTSFPFNRFEERVRKLYRVRDRVEAETGETKEYLINITGPVNIMEKRAEMVANEGGQYVMIDIVVAGWSALQYMREVTEDLGLAIHAHRAMHAAFTRNPRHGITMLALAKAARMIGVDQIHTGTAVGKMAGNYEEIKRINDFLLSKWEHIRPVFPVASGGLHPGLMPELIRLFGKDLVIQAGGGVMGHPDGPRAGAKALRDAIDAAIEGVDLDEKAKSSPELKKSLREVGLSKAKVGVQH | soluble
MMVYIMNAFDIKSTKMDVLSISLHTSDLFDLEDVLVKLGKKFQESGVVPFVLDVQEFDYPESLDLAALVSLFSRHGMQILGLKHSNERWAAAAMKYHLLFCLSHSENVKELGQVEVQKTEDGQKARKTVLITSPVRTGQQVYAEDGDLIVTGAVSQGAELIADGNIHIYAPMRGRALAGAKGDTSARIFIHSMQAELVSVAGIYRNFEQDLPNHLHKQPVQILLQDNRLVISAIGSE | not soluble
MMYIDNEVLEKMIMTMVEGFNRLEKKLDRMNRLKDCLDGDTLLDNCDLAQLLGVTQRTIARYREKGLIRYYQTDENGKNFYRSSEIQDFLRHRGKKK | not soluble
MMYSFEANANAVKISETVSVDTGQGAKIHKFVPKNSKTYSSDLIKTVDLTHIPTGAKARINAKITASVSRAGVLAGVGKLARLGAKFSTRAVPYVGTALLAHDVYETFKEDIQARGYQYDPETDKFAKVSG | not soluble
MNAHEIDYRLYGDDMQFVEIELDPYESVVAEAGGMMMMDDGIVMETVFGDGSSSGKGLLGRLVGAGKRLLTGESLFMTVFTNQGSGKRRVAFAAPYPGKIIPVDLSELGGKLICQKDSFLCAAKGVSVGIEFQRKLGAGFFGGEGFIMQKLEGDGLAFLHAGGTIHRRDLQPGETLRIDTGCLVAMTKDVNYDIEYVGSIKTAFFGGEGLFLATVTGPGAVWVQSLPFSRLADRVLAAAPSAGGRSVGEGSILGGIGDWLDGDD | not soluble
MNAIIFCLLFTTVTATYEVFGKGIEHRNEHLIINQLDIIPVESTPTPNRASRVQKRLCGRRLILFMLATCGECDTDSSEDLSHICCIKQCDVQDIIRVCCPNSFRK | not soluble
MNAIILAAGFGSRLMPLTKDQPKCMVEYKNKKIIDYEIEALKSAGINEIAVVGGYLNDVLKNYLNKYDIEHFFINSKYDKTNMVHTFFCAKDFMLKCIEEKQDLIISYADIVYFQDCVQKLINAKEELAIVVDKSWCKLWSKRFANPLEDAETLKMTNGYIIELGKKANAYDEIEAQYIGLFKFSYQFLSEVIAFYEMLDRDILYDNKNFENMYMTSFLQALIEKYNNAKAVEIDGNWCEIDFMSDLEVQIEKLEHHHHHH | not soluble
MNAKKRKGSAVERNIVSRLRDKGFAVVRAPASGSKRKDPIPDIIALKNGVIILIEMKSRKDIEGKIYVRREQAEGIIEFARKSGGSLFLGVKKPGVLKFIPFEKLRRTETGNYVADSEIEGLDLEDLVRLVEAKISRTLDNFL | soluble
MNARLENLMQWLKEKNVEAAFLTSTPNVFYMTNFHCEPHERLLGMFVFQEKEPILICPKMEEGQARNAGWAHEIIGFTDTDRPWDMIAKAIKDRGINANAVAIEKELLNVERYEELTKLFPNAAFTSAEEKVRELRLIKDEKELSILREAAKMADYAVEVGVNAIKEDRSELEVLAIIEHELKTKGIHKMSFDTMVLAGANSALPHGIPGANKMKRGDFVLFDLGVIIDGYCSDITRTVAFGEISEEQTRIYNTVLAGQLQAVEACKPGVTLGAIDNAARSVIADAGYGDFFPHRLGHGLGISVHEYPDVKAGNESPLKEGMVFTIEPGIYVPNVGGVRIEDDIYITKDGSEILTKFPKELQFVK | soluble
MNASLSSDIAPYIPTLIQQLPIIEEIKTHLPQVLPDYSADEIHATAIASVGMYLADIDYGIRQAIAPEVTPLELRQKLSAYKIELFKRIYNIQFLQPPSTPIGGLELMQQAFKTYKRLLTTLAKAYNLRLPKGILLEHHHHHH | not soluble
MNAYCLTLNDTNIAIEKKDIKHLHISVCPPDGSVHVSCPLALNDESLRLSLIKRLHWIKEQQQNFLNQNRQSQRGMLERESHYLFGKRYLLKIEHTTKKHFVLQNPKYLILHVHQKTSLENRLKVLENYYRQVLREKIQTCINRYEKILNESIQSFKIQKMKRIWGSCNIAKRALLFNLELAKVPRKGIEYVVVHELLHLKTRHHNEYFRDLLSLYLPNWQRAKASLKETYLERSLEHHHHHH | not soluble
MNCAISGEVPEEPVVSKKSGLLYEKRLIQTHISDYGKCPVTGEPHTLDDIVPIKTGKIVKPKPLHTASIPGLLGTFQTEWDSLMLSNFALEQQLHTARQELSHALYQHDAACRVIARLKKERDESRQLLAEAERQLPAAPEVATSNAALSNGKRGIDDGEQGPNAKKMRLGISAEVITELTDCNAALSQQRKKRQIPKTLASVDALEKFTQLSSHPLHKTNKPGIFSMDILHSKDVIATGGIDTTAVLFDRPSGQILSTLTGHSKKVTSIKFVGDTDLVLTASSDKTVRIWGCSEDGNYTSRHTLKDHSAEVRAVTVHATNKYFVSASLDSTWCFYDLSSGLCLAQVTDASENDVNYTAAAFHPDGLILGTGTAQSIVKIWDVKSQANVAKFGGHNGEITSISFSENGYFLATAALDGVRLWDLRKLKNFRTFDFPDANSVEFDHSGSYLGIAASDIRVFQAASVKAEWNPIKTLPDLSGTGKATSVKFGLDSKYIAVGSMDRNLRIFGLPDDDNTEDSAQDS | soluble
MNDALLRALSTVNDPELHRDLVSLGMIERAELSGDVAQVKVNLTTPACPLKGQIELDVRSALLQVPGVRDVQIEFGAMVRAATQPALPGVKHVVLVGSGKGGVGKSSVAVNLAASLARDGARVGLLDADVYGPSVAHMLGQGQARVTANEDRKMRPIEAHGVRFISMANLSPAGQALVWRGPMLHSAIQQFLKDSAWGELDYLIVDLPPGTGDVQLSLTQTVQVTGAVIVTTPQDVALIDAARAIDMFRKASVPVLGVVENMSYFVAPDTGLTYDIFGRGGSRKLGEQYPLLGEIPLDVEVRKDADAGAPAILAHPESVAAQALRAVARTLAGQISVRTLSELPEQLPVLLEHHHHHH | soluble
MNDDKLRSLFASLATLTQQGPIPVQAYSMLAGQHSTEVLAEHMRLRWLSDGRFGPVAANILMHIHKSDPKDISLSSNVLALLLNDYRNRLSVRNDSRLMFRNCVKTLFSMYPVYVKMDECVSKCFIKPMFSSLDALIDDAPDTEDLETAGILLSENGRVLHDLNSYLVERIIVKLRHKLISEDPIVTKHVRQIFIHVYDLWAFGWSELNIPECLLTLSAEGKLSIVDQTPLRKNDISKQEFGSKESIV | not soluble
